Results reported in patent publication US20150111822A1 (OTTAWA HOSPITAL RESEARCH INSTITUTE, published 2015).

Biological target: T1, endogenous Fzd7 on activated mouse satellite cells (mouse, UniProt Q61090 33-572)
T1 construct: whole, on cells; also called Frizzled7; Wnt7a receptor Fzd7
Experiment: in-situ proximity ligation assay (PLA) on activated satellite cells on cultured myofibers; signal abolished by siSdc4
Experimental: A) Co-IP of Sdc4 with the Wnt7a receptor Fzd7 from satellite cell derived primary myoblasts overexpressing (OE) Fzd7-Flag and Sdc4-YFP. Co-IP was performed with an anti-YFP antibody or with an IgG control. B) Proximity ligation assay (PLA) of Sdc4 and Fzd7 in activated satellite cells after 42 hours of fiber culture. […] Scale bar=5 μm. C) Proximity ligation assay (PLA) of Sdc4 and FN in activated satellite cells after 42 hours of fiber culture. […] Scale bar=5 μm. D) Co-IP of Fzd7 with FN from satellite cell derived primary myoblasts overexpressing (OE) Fzd7-Flag and FN. Co-IP was performed with an anti-YFP antibody. siRNA knockdown of endogenous Sdc4 (siSdc4) prevented Co-IP of FN with Fzd7 when compared to siSCR. E) Co-IP of Sdc4 with Wnt7a from satellite cell derived primary myoblasts that overexpress (OE) Sdc4-YFP and Wnt7a-HA. Co-IP was performed with an anti-flag antibody. siRNA knockdown of endogenous Fzd7 prevented Co-IP of Sdc4 with Wnt7a. F) Rac1 activation assay. Total Rac1 is shown as a loading control. Densitometric quantification represents average grey values±SEM after subtraction of the background and normalization to total Rac1. The average grey value obtained for empty vector (EV) was set to 100%, n=3, p values are ***p<0.001, **p<0.01, *p<0.05.
Mouse Fzd7 immunoprecipitated with mouse Sdc4 in mammalian myogenic cells. […]

binding result: binds
B1: endogenous Syndecan 4 (Sdc4) on mouse satellite cells and primary myoblasts (receptor, UniProt O35988 24-198, looked up)
chain: ESIRETEVIDPQDLLEGRYFSGALPDDEDAGGSDDFELSGSGDLDDTEEPRPFPEVIEPLVPLDNHIPENAQPGIRVPSEPKELEENEVIPKRAPSDVGDDMSNKVSMSSTAQGSNIFERTEVLAALIVGGVVGILFAVFLILLLVYRMKKKDEGSYDLGKKPIYKKAPTNEFYA
notes: whole, on cells; also called FN receptor Sdc4
